21 sequences from the supplement of paper PMC9233669 can be followed below.

Fewer inactive variants are shown than the library holds.

One series has as its system biotinyl-Leu-oxazolone. Kind of series: self-aminoacylation, catalytic enhancement (BLO) (fold over background); higher = more active; k-Seq, kA / k0A0; sequences stand for … in GGGAAUGGAUCCACAUCUACGAAUUC…UUCACUGCAGACUUGACGAAGCUG
In short, it runs like this:
(§1)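 Mutagenized RNA pools with a 21-nt variable region (0.43 μM) reacted with each biotinyl-aminoacyl-oxazolone at 2–1250 μM. Reactions ran in 50 μL HEPES/NaCl/KCl/MgCl2/CaCl2 buffer with 5% acetonitrile, pH 6.9–7.0, for 90 minutes at room temperature. Streptavidin-captured RNA was quantified by triplicate qPCR and Illumina sequencing, and per-sequence fraction reacted was fit to a pseudo-first-order model with 1000 bootstraps. Catalytic enhancement is median kA divided by the uncatalyzed rate, the low-activity peak of a bimodal Gaussian fit.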

Another series relates to biotinyl-Ile-oxazolone. Kind of series: self-aminoacylation, catalytic enhancement (BIO) (fold over background); higher = more active; k-Seq, kA / k0A0; sequences stand for … in GGGAAUGGAUCCACAUCUACGAAUUC…UUCACUGCAGACUUGACGAAGCUG
The essentials: as §1

A further series relates to biotinyl-Trp-oxazolone. The series can be described thus: self-aminoacylation, catalytic enhancement (BWO) (fold over background); higher = more active; k-Seq, kA / k0A0; sequences stand for … in GGGAAUGGAUCCACAUCUACGAAUUC…UUCACUGCAGACUUGACGAAGCUG
The essentials:
as §1

The subject of another series is biotinyl-Phe-oxazolone. Kind of series: self-aminoacylation, catalytic enhancement (BFO) (fold over background); higher = more active; k-Seq, kA / k0A0; sequences stand for … in GGGAAUGGAUCCACAUCUACGAAUUC…UUCACUGCAGACUUGACGAAGCUG
The essentials:
as §1

A further series deals with biotinyl-Met-oxazolone. Kind of series: self-aminoacylation, catalytic enhancement (BMO) (fold over background); higher = more active; k-Seq, kA / k0A0; sequences stand for … in GGGAAUGGAUCCACAUCUACGAAUUC…UUCACUGCAGACUUGACGAAGCUG
In short, it runs like this: as §1

Another series deals with biotinyl-Val-oxazolone. Kind of series: self-aminoacylation, catalytic enhancement (BVO) (fold over background); higher = more active; k-Seq, kA / k0A0; sequences stand for … in GGGAAUGGAUCCACAUCUACGAAUUC…UUCACUGCAGACUUGACGAAGCUG
In short, it runs like this: as §1

For “CUACUUCAAAGAAUCGGUCUU [Fam1A.1 aminoacylation ribozyme variant]”, the self-aminoacylation with biotinyl-Leu-oxazolone came to 1.14; with biotinyl-Ile-oxazolone, 1.29; with biotinyl-Trp-oxazolone it was 2.13; with biotinyl-Phe-oxazolone it was 2.46; with biotinyl-Met-oxazolone, 0.926; in the series on biotinyl-Val-oxazolone, 1.06.
Consider “CAGUUUGCUAAUAGUAGCAAG [Fam3.1 aminoacylation ribozyme variant]”, for which the self-aminoacylation in the series on biotinyl-Leu-oxazolone was found to be 1.5; in the series on biotinyl-Ile-oxazolone it was 1.26; with biotinyl-Trp-oxazolone it was 1.65; with biotinyl-Phe-oxazolone, 2.46; in the series on biotinyl-Met-oxazolone it was 1.58; in the series on biotinyl-Val-oxazolone, 1.04.
On to “AUUGACCGAGGUCAUCGGGUG [Fam2.2 aminoacylation ribozyme variant]”, for which the self-aminoacylation with biotinyl-Leu-oxazolone came out at 11; in the series with biotinyl-Ile-oxazolone it was 4.88; in the series with biotinyl-Trp-oxazolone, 8.13; with biotinyl-Phe-oxazolone, 54.8; in the series with biotinyl-Met-oxazolone it was 8.11; with biotinyl-Val-oxazolone, 4.8.
Turning to “UUUCACCUAGGUCAUUGGGUG [Fam2.2 aminoacylation ribozyme variant]”, the self-aminoacylation with biotinyl-Leu-oxazolone stood at 2.57; in the series with biotinyl-Ile-oxazolone, 2.59; in the series with biotinyl-Trp-oxazolone, 3.77; in the series with biotinyl-Phe-oxazolone, 17; with biotinyl-Met-oxazolone it was 2.51; with biotinyl-Val-oxazolone it was 2.66.
As to “CCACAUUUCAAGCAAUCGGGC [Fam1B.1 aminoacylation ribozyme variant]”, the self-aminoacylation in the series with biotinyl-Leu-oxazolone amounted to 2.78; with biotinyl-Ile-oxazolone it was 3.08; with biotinyl-Trp-oxazolone it was 2.91; with biotinyl-Phe-oxazolone, 1.7; in the series on biotinyl-Met-oxazolone, 3.55; in the series on biotinyl-Val-oxazolone, 2.7.
For “CCUCAGUUCAAGCAAUCGGUC [Fam1B.1 aminoacylation ribozyme variant]”, the self-aminoacylation in the series with biotinyl-Leu-oxazolone is 1.36; in the series with biotinyl-Ile-oxazolone it was 1.12; in the series with biotinyl-Trp-oxazolone, 3.37; in the series with biotinyl-Phe-oxazolone, 5.46; in the series with biotinyl-Met-oxazolone, 1.17; in the series on biotinyl-Val-oxazolone it was 1.03.
On to “CUACUUCAUAGAAUCGGUCUG [Fam1A.1 aminoacylation ribozyme variant]”, for which the self-aminoacylation came out at 0.837 with biotinyl-Leu-oxazolone; 0.783 in the series with biotinyl-Ile-oxazolone; 0.698 in the series on biotinyl-Trp-oxazolone; 0.644 with biotinyl-Phe-oxazolone; 0.75 in the series with biotinyl-Met-oxazolone; 0.749 with biotinyl-Val-oxazolone.
Regarding “AACUUUGCUGAUAGUCGCAAG [Fam3.1 aminoacylation ribozyme variant]”, the self-aminoacylation in the series on biotinyl-Leu-oxazolone turned out to be 3.01; in the series with biotinyl-Ile-oxazolone, 2.81; in the series with biotinyl-Trp-oxazolone, 3.67; in the series with biotinyl-Phe-oxazolone, 3.74; with biotinyl-Met-oxazolone, 2.81; in the series on biotinyl-Val-oxazolone, 2.24.
For “CCUCAAUUCAAGCAAUCGGUC [Fam1B.1 aminoacylation ribozyme variant]”, the self-aminoacylation with biotinyl-Leu-oxazolone stood at 1.04; in the series with biotinyl-Ile-oxazolone, 1.07; in the series on biotinyl-Trp-oxazolone it was 3.57; with biotinyl-Phe-oxazolone, 6.19; in the series on biotinyl-Met-oxazolone, 0.916; with biotinyl-Val-oxazolone, 0.943.
As to “UUACUUCAAACAAUCGGUAUG [Fam1A.1 aminoacylation ribozyme variant]”, the self-aminoacylation is 1.3 with biotinyl-Leu-oxazolone; 1.16 in the series with biotinyl-Ile-oxazolone; 7.05 in the series on biotinyl-Trp-oxazolone; 12.4 in the series on biotinyl-Phe-oxazolone; 1.02 in the series with biotinyl-Met-oxazolone; 1.02 in the series on biotinyl-Val-oxazolone.
Consider “AGUACCCUGGUCAUCGCGUGA [Fam2.1 aminoacylation ribozyme variant]”, for which the self-aminoacylation in the series with biotinyl-Leu-oxazolone stood at 20.3; with biotinyl-Ile-oxazolone, 8.36; in the series on biotinyl-Trp-oxazolone, 20.5; with biotinyl-Phe-oxazolone it was 128; with biotinyl-Met-oxazolone it was 19.4; in the series with biotinyl-Val-oxazolone it was 12.2.
In the case of “GCACCCUUCAAGCAAUCGGUC [Fam1B.1 aminoacylation ribozyme variant]”, the self-aminoacylation is 1.45 in the series with biotinyl-Leu-oxazolone; 1.32 in the series with biotinyl-Ile-oxazolone; 4.63 in the series with biotinyl-Trp-oxazolone; 4.04 in the series on biotinyl-Phe-oxazolone; 1.22 with biotinyl-Met-oxazolone; 1.47 in the series with biotinyl-Val-oxazolone.
For “AUUACCCUGGUCAUCGCGAGA [Fam2.1 aminoacylation ribozyme variant]”, the self-aminoacylation in the series with biotinyl-Leu-oxazolone was 1.44; in the series with biotinyl-Ile-oxazolone, 2.17; in the series on biotinyl-Trp-oxazolone, 2.72; in the series with biotinyl-Phe-oxazolone, 1.58; in the series with biotinyl-Met-oxazolone, 1.68; in the series on biotinyl-Val-oxazolone, 2.21.
Take “AAGUUUGCUAAUAGUCCAAAG [Fam3.1 aminoacylation ribozyme variant]”: the self-aminoacylation with biotinyl-Leu-oxazolone worked out at 0.966; in the series with biotinyl-Ile-oxazolone, 1.21; in the series with biotinyl-Trp-oxazolone, 1.75; with biotinyl-Phe-oxazolone, 3.72; in the series with biotinyl-Met-oxazolone, 1.34; with biotinyl-Val-oxazolone, 1.18.
With “AUUAACCGGGUCAUCGAGUGA [Fam2.1 aminoacylation ribozyme variant]”, the self-aminoacylation is 7.07 in the series with biotinyl-Leu-oxazolone; 3.38 in the series with biotinyl-Ile-oxazolone; 7.04 with biotinyl-Trp-oxazolone; 36 in the series with biotinyl-Phe-oxazolone; 6.03 with biotinyl-Met-oxazolone; 3.29 with biotinyl-Val-oxazolone.
For the sequence “AUUCACCUAGGUGAUCGGGUG [Fam2.2 aminoacylation ribozyme variant]”, the self-aminoacylation in the series on biotinyl-Leu-oxazolone amounted to 3.27; in the series with biotinyl-Ile-oxazolone, 2.52; in the series on biotinyl-Trp-oxazolone it was 3.34; in the series on biotinyl-Phe-oxazolone, 16.6; in the series on biotinyl-Met-oxazolone, 2.81; in the series with biotinyl-Val-oxazolone it was 2.62.
Regarding “AUUUCCCUAGGUCAUCGGGUG [Fam2.2 aminoacylation ribozyme variant]”, the self-aminoacylation in the series on biotinyl-Leu-oxazolone was found to be 13.5; with biotinyl-Ile-oxazolone, 6.29; in the series on biotinyl-Trp-oxazolone, 9.73; in the series on biotinyl-Phe-oxazolone, 70.4; in the series on biotinyl-Met-oxazolone, 10.3; with biotinyl-Val-oxazolone, 6.97.
With “CCACACUUCAAGCACUCGCUC [Fam1B.1 aminoacylation ribozyme variant]”, the self-aminoacylation in the series with biotinyl-Leu-oxazolone is 2.39; in the series with biotinyl-Ile-oxazolone it was 2.02; with biotinyl-Trp-oxazolone it was 1.51; in the series on biotinyl-Phe-oxazolone it was 2.93; in the series with biotinyl-Met-oxazolone, 2.25; in the series with biotinyl-Val-oxazolone, 2.07.
Turning to “AGUAUCCUGGUCAUCGAGUGA [Fam2.1 aminoacylation ribozyme variant]”, the self-aminoacylation in the series with biotinyl-Leu-oxazolone was determined as 7.39; in the series on biotinyl-Ile-oxazolone, 4.12; in the series with biotinyl-Trp-oxazolone, 8.53; in the series on biotinyl-Phe-oxazolone, 20.7; in the series on biotinyl-Met-oxazolone it was 6.72; in the series on biotinyl-Val-oxazolone it was 4.
Regarding “AUGUUCGCUAAUAGUCGCAAG [Fam3.1 aminoacylation ribozyme variant]”, the self-aminoacylation in the series with biotinyl-Leu-oxazolone is 1.14; with biotinyl-Ile-oxazolone, 1.58; with biotinyl-Trp-oxazolone it was 1.67; in the series with biotinyl-Phe-oxazolone, 3.79; in the series with biotinyl-Met-oxazolone, 1.65; in the series with biotinyl-Val-oxazolone, 1.55.
For “AUCACCUUGGUCAUCGAGUGA [Fam2.1 aminoacylation ribozyme variant]”, the self-aminoacylation worked out at 6.86 in the series with biotinyl-Leu-oxazolone; 3.39 in the series with biotinyl-Ile-oxazolone; 7.19 with biotinyl-Trp-oxazolone; 5.13 in the series with biotinyl-Phe-oxazolone; 5.76 in the series on biotinyl-Met-oxazolone; 3.35 with biotinyl-Val-oxazolone.
